Source: paper PMC3631511

Tests used:
[1] = target: ΔE22-Aβ_(1-39) (Japanese mutant Aβ); experiment: critical concentration
[2] = target: ΔE22-Aβ_(1-39) (Japanese mutant Aβ); experiment: fluorescence polarisation

critical concentration (Cr) [1]: 0.167 µM
k (first-order rate constant of the increase in anisotropy on aggregation) [2]: 0.08 s⁻¹
Substance: ΔE22-Aβ_(1-39) (Japanese mutant Aβ) (peptide)
